Data as given in the NTF2 design screens of Basanta et al. (2020).

Assay: protease stability score; higher = more stable; yeast display proteolysis, trypsin and chymotrypsin;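 note: relative to predicted unfolded state with 0 unfolded-like and 1 meaning tenfold more protease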

Q: Which protease stability score does the source give for “DEEKTIHNHLMELVVRAFLTGDEELWSNLADPDTKEIIDGKTNVGREEVAKFWKDLVHKFKNARWHITIKRVDVIDGQVRQNSHLEIRYGDKHFHLETEDHLYVINGRLKQFEFRVN” here?
A: The protease stability score was 1.18.

Q: Which protease stability score does the source give for “DEELEMLRRFWEDLLHSAKTGDEELWERLADPNVRVIINGKLFHGRELASHALRELFERVDVIKDVKITDEKRQGDKIHLDIRVHNHYNGKFEDNDLHIVLVKVDGKWFLKSVEFR” here?
A: The protease stability score was 2.12.

Q: For “DEELHHQERLLREFLHAEFTGDEDKLRHLADPRTRSDLEFENVEIVLHGMDEHVKWWEELGFKIDEMRISRIDVVGNFIILDTRVRGHINGQETHFEHHIIINTINGKIHSIRVHTK”, which protease stability score is on record?
A: Its protease stability score is 0.735.

Q: For “DEELKALEDLSKKEIEAHLTGDEDTLVQLADPNMKILYNGREFHGWNVWKKISSKMIEEMRLRRVELEHVHVINGQIDSHGILDVEVNGRRVKERMHIVMLKVNGRWLIHSVEYR”, which protease stability score is on record?
A: The protease stability score was 1.27.

Q: With “DEELNEWEEWMRRAMKADETGDEDTVTHMLDPNVKFDIDGVELVGREEFIRFFRELRISFHHFKFDHIRDINGRVRVEGTVHLEIIIGEFRHRDDRRTERIELKINGRWYIHSMKIG” as the sequence, how does the protease stability score read?
A: Its protease stability score is 1.18.

Q: For “DEEMQLAEEMSRKFLHNWHTGDWRIMSHLIDPDVKIIIVVGDKRIELHGRENFVKEIIRWLHHLRETDRRVDHLRIQGDKAHVRVTVHVRYGDKTMDLDEDIRILVVNGKIHSIEIIQV”, which protease stability score is on record?
A: Its protease stability score is 1.02.

Q: Which protease stability score does the source give for “DEENDLMLEMAFKFMHDWLTGDFDKETKLADPDVKYDVGEFRFHGREEVTKWLEDMERSLGIDHQFLNIHDLKVQGDKVHIKGELVLIVNGRKETRRVDLHFEIVDGRMRKVTIEKR” here?
A: Its protease stability score is 1.

Q: For “DEENEHAKHLMRELIKSIITGDEEMIDHLADPNMRLRVGDKEWHGREEIQHWLRRLVEEARIHDVELTSVRTIGDKVILDTRVDIKQGDKRKIITLIIIVQKFDGRWIIEEIRIH”, which protease stability score is on record?
A: The protease stability score was 2.57.

Q: With “DEENEHSEKISEEVLHALHTGDWNRLAHLADPHTLLIIEYGDKEIVNHGWEVFVKWILDVFRKVKNIKVHIRDSKVIGDKIHLDVEIHFNGRTTTVHIDITIIDGRLHSIHINHK” as the sequence, how does the protease stability score read?
A: Its protease stability score is 1.8.

Q: Which protease stability score does the source give for “DEENEILRELHRELVEAWLTGDEELLRRLHDPDVRVHIGDKDLVGMEQMIEDIRFWLRRFDHLRIHIHRVRAINGVIHVDGELQLFQGDKSIRHQVIIELEVVNGRIKNTKFSTI” here?
A: The protease stability score was 1.4.

Q: Which protease stability score does the source give for “DEENERVHQALRDWRHIHRTGDEESTRHNMDPNARLDVNGVEVHGMEKVSEMFVELRIEHLHLERVHTQGEKVEVHTHVEVRQGDKRQEVKVIIFYIKINGRWFVERFEIH” here?
A: Its protease stability score is 0.85.

Q: With “DEENHHTREIFKMTLKEVFTGNEEMTTRLLDPHVRVQVGDKTIHGWKHFTHIFFRLRHEFGVDHVQLRHLEIIGNKAVIHFSVYVGEWTYEFTIHALKVNGRWVLESLEVHQI” as the sequence, how does the protease stability score read?
A: Its protease stability score is 1.5.

Q: With “DEENKHLKEIARRFVEDWETGDEDSLKHMLDPHARVVINGVEVHGREEIIKLFREIFHHIRIDHITVNTVITVNGVAHSHIHIRVDINGQERRHNTELIFVFVDGQVSQIKFETE” as the sequence, how does the protease stability score read?
A: The protease stability score was 1.24.

Q: For “DEENKSMEEMIRLLTEALRTGDFELIHHLADPRMRILIGDKELHGWESWAQFVVKLGVKHTRIQIDDFRIIDGRINLHTHMEIDIDGRRTSSHTHMETIKVDGRWLITVLKIR”, which protease stability score is on record?
A: Its protease stability score is 1.1.

Q: Which protease stability score does the source give for “DEENKVLEHMIRLIHHDRSTGDEKVLLKLFDPHARFIYHYGDKEIHLHGRKEITDLLVKLHRHIRVDRLHIDHWEFHGDKMHIDHTTRMNVNGREMETRIDLIITIIDGVIHSIEIRQR” here?
A: The protease stability score was 1.19.

Q: Which protease stability score does the source give for “DEENNIVKLLFHLYVRAIETGDWKTLEKLADPNYRTIFDGKDLHGREHYMRWVRELRVEDIKLNHIHMQGDKLSIDGEIDVRVGDKETRFEVHIIAEKINGRWILRSSIID” here?
A: The protease stability score was 1.82.

Q: With “DEEQEILKEMAKEILHMLQTGDWKRFLELADPNVKNIVNGREVHGREIVVEYIRKMGIDHHILHDVHIQGDKIHIHGTLEVNGKRIEVEIEIVVVNGRVKMIIFILK” as the sequence, how does the protease stability score read?
A: The protease stability score was 2.05.

Q: For “DEEQEIMEHILEELLRIDWTGDEHVLERLLDPNMQLEFNGVRLVGMEEVQRWLRRFLTEIRIHDFKVHDFHSFNGRLHSDVEVDFQVNGQRHITRVRLNLEVINGVVHRVEVRHE”, which protease stability score is on record?
A: The protease stability score was 2.17.

Q: With “DEEQELLLRIFERWLEFLLTGDEDTMHRLFDPDVKSRIGDFNHHGRELVLEAHQWFLKHARLKEFIRRDIHAINGRINMKGDVRVDVNGQEWEDHIRIHLVVVNGKMREIHIEEK” as the sequence, how does the protease stability score read?
A: Its protease stability score is 1.38.

Q: For “DEEQELTEMVFRIIKRLNETGNEEELRRNADPHVRLDWNGVHYHGREVYDHVWNMLGFEIKDTRIRDIRMQGEKIFVDGERRGNINGRTIDTRIIIIIIAVNGRMKEIVIRDL”, which protease stability score is on record?
A: Its protease stability score is 1.3.

Q: With “DEEQHRMEEELRKMFEHLFTGDFKWLHKNVDPNARLDIGDKHVHGREAMVELIIRHVESLGVDHVKIRHVEVQGEKIEIRGESKVGDWKFSHHINVIVVDGVHKHFRIENR” as the sequence, how does the protease stability score read?
A: Its protease stability score is 0.684.

Q: With “DEEQKAADRVNQLHTESMLTGDEDEFKHLADPNTKFLINGVEFHGRDTLHRWLSEIRLHHHHFEVKHLNFYGDFVEVEGHVRLVFHVNGRRIDVSTRVRWIIEKVDGRWYVRQIHIN” as the sequence, how does the protease stability score read?
A: The protease stability score was 1.68.

Q: With “DEEQKEALHFLENLVRSWITGDEETLKRLFDPHYRVHAENRELHGWEDVIHTAVRESEEIRLHHVKIEHLEFVDGQIFIHLNFDIDINGRREHVHTHVILLKINGRWILTKIEFH” as the sequence, how does the protease stability score read?
A: Its protease stability score is 1.38.

Q: Which protease stability score does the source give for “DEEQNHFFESIKELTHSWRTGDEERVTKLADPNVRLEINGRDIVGMERFSKLMIELRVHDLKIHRIRVVNGKVESDIEMHIHQGDKHSVTETHIFARKVDGKWILESIRIG” here?
A: Its protease stability score is 1.07.

Q: Which protease stability score does the source give for “DEEQQDLIEVVNRYLRAVLTGDEDDLRELLDPHYRIRIGDKEFVGWKEFIRHVREARYTIHRWSVDSVEIIGDKVILYGELDGIEKVNGKTIKKRFEVIFYINKIDGRWHFKHIEFH” here?
A: The protease stability score was 2.29.

Q: For “DEEQRHAHKIVDRLLELIMTGDEDDLYRLADPNTRIDINGKKFHGMDFWFHLLRRVDHFEVEDFSLKRSDRVDGVAELDHRTTIRVIIGDKTIRLEIRHRMWVVKVDGRWKIEEVVIR”, which protease stability score is on record?
A: Its protease stability score is 1.04.

Q: Which protease stability score does the source give for “DEEQRVEEEMAEMQRLWHETGDEESIQKNLDPRTRIVIHINGKEIRLHGREAWLKEVRRLGVKYLRIEDMEVVDGRVHARIHYTVNGVKIRIRVEFYIVDGRMEEIRRHWE” here?
A: The protease stability score was 0.432.

Q: Which protease stability score does the source give for “DEEQTQMEETVNVVLSAMRTGDEETSKKLADPNVKIRINGREFHGRDFYAHVILMFGIDHIEMRIERYEFQGEKLILRGRLRLEFNGKEETSDVIEIWWKVDGRWHLDNYYEN” here?
A: The protease stability score was 1.37.

Q: Which protease stability score does the source give for “DEERDEARRVLEIFIKVFRTGDWHILHELADPHVRMDVNGREFIGREDYVKFFRYEMEIFGVERIDIKIHDVHVYNGRIEVHTRQNINGKERDTHLEIHKINGQWHLRDVRIH” here?
A: The protease stability score was 1.44.

Q: For “DEERDETRELLRRLQELLRTGDEEEIRKLADPHVRSDVNGREYHGRDWATHLIMRFDHLDIERIRIFDGRIETDFRVEIGDKTFQTRMHVRKIDGRWNIKEIKII”, which protease stability score is on record?
A: The protease stability score was 1.55.

Q: For “DEERDHLLEISQRIIHSWVTGDWKLFARLIDPHARLIFHFENVDLHYHGREQVVTFIIEMRIQHIDIRRYTVQGNKVHIDGHQKIEIGDKSIRTDSEMNSIIVNGKLHETFLIFK”, which protease stability score is on record?
A: The protease stability score was 1.45.

Q: For “DEEREDIEKVTHILSEIWETGDEHRLHRMLDPNTKVVIDGVEIHGRELIIRFRKELRHKLGLDRIEVDIDHIEVQGDKAISDTSIDYNGREFKVINTVHKYNGRWLVHRIIHE”, which protease stability score is on record?
A: The protease stability score was 0.815.

Q: For “DEEREDVETHLRVLYDLILTGDEEDIRNLLDPHVRLDFNGKDIHGMERVSHHMRELRIERLEIKRWDVVNGRVHMDLHIVFHYGDKRRDTEVHVIMLKIDGRWHLESIHIK”, which protease stability score is on record?
A: Its protease stability score is 2.21.

Q: With “DEEREELHRHIKILNKAWTTGDERLLYELMDPHAKINIDGVDFIGREEATEEYHHRWRHLGVDHFEVRFTEIHDIDGRLHMQTKLNLIVNGQREERHTRVHVRKINGRWLVHNLEIR” as the sequence, how does the protease stability score read?
A: The protease stability score was 0.125.

Q: Which protease stability score does the source give for “DEEREFSERAIEMSLEDWLTGDEHRMHRMLDPHVRLDIDGRDIIGRERMTKIIFEINKTLGVDHVEFHDHEIQGDKVHSHLDVHINGRRLRITLHLYKIDGRWQIREVKVV” here?
A: Its protease stability score is 1.13.

Q: For “DEEREHSEEALLLLLHLIMTGDEEELIKNVDPNARITQGDKEFHGREVVIKHLFELMHRFGVKHFTVDHVEIFNGRLFIRFTLHFNGRKIDEHLILVKINGRWLLKSMEIK”, which protease stability score is on record?
A: The protease stability score was 2.21.
